Numbered stars: 1 amine (or outer) side, 2 acyl side, 3 side chain; on linkers, the order of the positions; unused ones are H or OH. Bridge positions count the residues as written; N and C are the ends. Square brackets hold non-standard residues; d marks the D form. * marks the point of attachment. tMeBn(DOTA-PP) = 1,3,5-trimethylbenzylidene, two thioethers to Cys, third CH2 bound to one N of piperazine whose other N bears DOTA, O=C(O)CN1CCN(CC(=O)O)CCN(CC(=O)N2CCN(Cc3cc(C[*:1])cc(C[*:2])c3)CC2)CCN(CC(=O)O)CC1; TBMB(SCH2CH2NH-DOTA) = O=C(O)CN1CCN(CC(=O)O)CCN(CC(=O)NCCSCc2cc(C[*:1])cc(C[*:2])c2)CCN(CC(=O)O)CC1; Ttds = 1,13-diamino-4,7,10-trioxatridecan-succinamic acid, O=C(CCC(=O)[*:2])NCCCOCCOCCOCCCN[*:1]; nBu‑CAyl = n-butylaminocarbonyl, CCCCNC(=O)*; mXylylene = c1cc(C[*:1])cc(C[*:2])c1; Pentanesulfonyl = CCCCCS(=O)(=O)*; Nle = CCCC[C@H](N)C(=O)O; Hexanoyl = CCCCCC(=O)*; Ahx = NCCCCCC(=O)O; Sar = CNCC(=O)O
What was measured:
[1] = molecular target: T1, human fibroblast activation protein (FAP) on WI-38 fibroblasts (human, UniProt Q12884 1-760); assay: competitive FACS, WI-38 cells, Cy5-labeled peptide as competitor
T1 construct: FAP-expressing human WI-38 fibroblasts (ECACC)

[2] = molecular target: T2, Recombinant human FAP (R&D systems, #3715-SE) (human, UniProt Q12884 26-760); assay: cell-based or functional assay
[3] = molecular target: T2, Recombinant human FAP (R&D systems, …); assay: SPR (Biacore T200), FAP captured on anti-FAP antibody, single cycle kinetics
[4] = molecular target: Recombinant human DPP4 (R&D systems, #9168-SE) (human, UniProt P27487 29-766); assay: cell-based or functional assay
[5] = molecular target: T3, recombinant human PREP (R&D systems, #4308-SE) (human, UniProt P48147 1-710); assay: cell-based or functional assay
T3 sequence: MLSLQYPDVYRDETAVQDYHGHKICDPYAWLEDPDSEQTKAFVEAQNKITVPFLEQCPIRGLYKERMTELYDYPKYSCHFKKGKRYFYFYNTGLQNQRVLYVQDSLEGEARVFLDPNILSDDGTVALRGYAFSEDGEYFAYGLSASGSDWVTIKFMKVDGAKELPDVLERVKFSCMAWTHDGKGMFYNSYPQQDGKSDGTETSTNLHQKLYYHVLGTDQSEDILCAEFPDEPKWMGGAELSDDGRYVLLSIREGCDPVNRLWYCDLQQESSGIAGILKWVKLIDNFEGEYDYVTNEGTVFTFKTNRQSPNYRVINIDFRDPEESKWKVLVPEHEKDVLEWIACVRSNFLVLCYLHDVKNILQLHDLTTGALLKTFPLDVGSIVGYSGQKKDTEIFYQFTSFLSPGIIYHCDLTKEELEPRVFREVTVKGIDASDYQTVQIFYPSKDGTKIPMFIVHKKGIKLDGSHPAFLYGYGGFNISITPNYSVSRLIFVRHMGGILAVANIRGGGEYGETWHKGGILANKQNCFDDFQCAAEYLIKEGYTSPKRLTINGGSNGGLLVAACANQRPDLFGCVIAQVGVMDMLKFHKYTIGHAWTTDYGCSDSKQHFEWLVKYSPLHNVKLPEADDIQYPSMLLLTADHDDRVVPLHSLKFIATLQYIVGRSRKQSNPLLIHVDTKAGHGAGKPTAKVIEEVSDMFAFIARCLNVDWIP

Recombinant human DPP4 (R&D systems, #9168-SE), sequence (P27487 29-766 limits assumed): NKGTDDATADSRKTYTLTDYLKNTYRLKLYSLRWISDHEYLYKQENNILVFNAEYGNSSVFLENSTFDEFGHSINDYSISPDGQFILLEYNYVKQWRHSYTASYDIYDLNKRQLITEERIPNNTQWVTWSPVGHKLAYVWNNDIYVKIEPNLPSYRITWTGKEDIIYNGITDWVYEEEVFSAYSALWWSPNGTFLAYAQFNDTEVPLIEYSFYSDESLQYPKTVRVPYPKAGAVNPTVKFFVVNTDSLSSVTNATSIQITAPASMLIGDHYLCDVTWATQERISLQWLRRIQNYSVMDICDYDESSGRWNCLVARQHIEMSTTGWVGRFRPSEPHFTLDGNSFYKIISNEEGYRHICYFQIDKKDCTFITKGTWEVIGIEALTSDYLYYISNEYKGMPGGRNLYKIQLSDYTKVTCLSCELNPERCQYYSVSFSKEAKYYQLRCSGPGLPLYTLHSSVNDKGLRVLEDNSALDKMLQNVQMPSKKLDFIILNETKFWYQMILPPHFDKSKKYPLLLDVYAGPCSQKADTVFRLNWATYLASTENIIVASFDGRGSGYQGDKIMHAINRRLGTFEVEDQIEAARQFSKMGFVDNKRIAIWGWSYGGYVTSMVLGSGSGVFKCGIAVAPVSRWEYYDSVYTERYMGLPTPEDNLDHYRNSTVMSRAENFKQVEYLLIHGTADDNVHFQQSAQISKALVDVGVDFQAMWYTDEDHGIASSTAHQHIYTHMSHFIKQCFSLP

B1: H-Ahx-Ttds-Nle-[Cys-(3MeBn)-Pro-Pro-Thr-Gln-Phe-Cys]-Asp-NH2 (peptide)
peptide: H-[Ahx][Ttds][Nle]CPPTQFCD-NH2
modifications: linker 4-10 via mXylylene
SMILES: CCCC[C@H](NC(=O)CCC(=O)NCCCOCCOCCOCCCNC(=O)CCCCCN)C(=O)N[C@H]1CSCc2cccc(c2)CSC[C@@H](C(=O)N[C@@H](CC(=O)O)C(N)=O)NC(=O)[C@H](Cc2ccccc2)NC(=O)[C@H](CCC(N)=O)NC(=O)[C@H]([C@@H](C)O)NC(=O)[C@@H]2CCCN2C(=O)[C@@H]2CCCN2C1=O
notes: also called 3BP-3980
- pIC50 Category (FACS) [1]: > 8 pIC50
- pIC50 Category (Activity) [2]: > 8 pIC50

Binder: Pentanesulfonyl-CPPTQFCD-NH2 (linker 1-7 via tMeBn(InDOTA-PP); also: In complex of DOTA (InDOTA), also called 3BP-3717) [Pentyl-SO2-[Cys(tMeBn(InDOTA-PP))-Pro-Pro-Thr-Gln-Phe-Cys]-Asp-NH2]
- pIC50 Category (FACS) [1]: > 8 pIC50
- pIC50 Category (Activity) [2]: > 8 pIC50
- pKD Category [3]: > 8 pKD

Binder: Hexanoyl-CPPTQFCG-OH (linker 1-7 via tMeBn(InDOTA-AET); also: In complex (InDOTA), also called 3BP-3714) [Hex-[Cys(tMeBn(InDOTA-AET))-Pro-Pro-Thr-Gln-Phe-Cys]-Gly-OH]
- pIC50 Category (FACS) [1]: > 8 pIC50
- pIC50 Category (Activity) [2]: > 8 pIC50
- pKD Category [3]: > 8 pKD

B2: Hex-[Cys(tMeBn(DOTA-PP))-Pro-Pro-Ala-Ala-Phe-Cys]-Asp-NH2 (peptide)
peptide: Hexanoyl-CPPAAFCD-NH2
modifications: linker 1-7 via tMeBn(DOTA-PP)
SMILES: CCCCCC(=O)N[C@H]1CSCc2cc(cc(CN3CCN(C(=O)CN4CCN(CC(=O)O)CCN(CC(=O)O)CCN(CC(=O)O)CC4)CC3)c2)CSC[C@@H](C(=O)N[C@@H](CC(=O)O)C(N)=O)NC(=O)[C@H](Cc2ccccc2)NC(=O)[C@H](C)NC(=O)[C@H](C)NC(=O)[C@@H]2CCCN2C(=O)[C@@H]2CCCN2C1=O
notes: also called 3BP-3746
- pIC50 Category (FACS) [1]: ≤ 6 pIC50

B3: Hex-[Cys(tMeBn(DOTA-AET))-Pro-Pro-Thr-Gln-Phe-Cys]-OH (peptide)
peptide: Hexanoyl-CPPTQFC-OH
modifications: bridge 1-7; not fully specified (bridges); printed as Hex-[Cys(tMeBn(DOTA-AET))-Pro-Pro-Thr-Gln-Phe-Cys]-OH; also: DOTA-AET attached to tMeBn scaffold
- pIC50 (DPP4) [4]: < 6 pIC50
- pIC50 (PREP) [5]: < 6 pIC50

B4: nBu-CAyl-[Cys(tMeBn(DOTA-AET))-Nmg-Pro-Thr-Gln-Phe-Cys]-NH2 (peptide)
peptide: {nBu‑CAyl}-C[Sar]PTQFC-NH2
modifications: linker 1-7 via TBMB(SCH2CH2NH-DOTA)
SMILES: CCCCNC(=O)N[C@H]1CSCc2cc(CSCCNC(=O)CN3CCN(CC(=O)O)CCN(CC(=O)O)CCN(CC(=O)O)CC3)cc(c2)CSC[C@@H](C(N)=O)NC(=O)[C@H](Cc2ccccc2)NC(=O)[C@H](CCC(N)=O)NC(=O)[C@H]([C@@H](C)O)NC(=O)[C@@H]2CCCN2C(=O)CN(C)C1=O
notes: also called 3BP-4621
- pIC50 Category (FACS) [1]: > 8 pIC50
- pIC50 Category (Activity) [2]: > 8 pIC50

B5: Hex-[Cys(tMeBn(InDOTA-AET))-Nmg-Pro-Thr-Gln-Phe-Cys]-OH (peptide)
peptide: Hexanoyl-C[Sar]PTQFC-OH
modifications: linker 1-7 via tMeBn(InDOTA-AET); not fully specified (residue 1); printed as Hex--[C(tMeBn(InDOTA--AET))--Nmg-PTQFC]-OH; also: DOTA complexing indium
notes: also called 3BP-3716
- pIC50 Category (FACS) [1]: > 8 pIC50
- pIC50 Category (Activity) [2]: > 8 pIC50
- pKD Category [3]: > 8 pKD

Binder: Hexanoyl-CPPTQFC-NH2 (linker 1-7 via mXylylene) [Hex-[Cys(3MeBn)-Pro-Pro-Thr-Gln-Phe-Cys]-NH2]
- pIC50 (DPP4) [4]: < 6 pIC50
- pIC50 (PREP) [5]: < 6 pIC50

B6: Hex-[Cys-(tMeBn(DOTA-AET))-Pro-Pro-Thr-Glu-Phe-Cys]-OH (peptide)
peptide: Hexanoyl-CPPTEFC-OH
modifications: linker 1-7 via TBMB(SCH2CH2NH-DOTA)
SMILES: CCCCCC(=O)N[C@H]1CSCc2cc(CSCCNC(=O)CN3CCN(CC(=O)O)CCN(CC(=O)O)CCN(CC(=O)O)CC3)cc(c2)CSC[C@@H](C(=O)O)NC(=O)[C@H](Cc2ccccc2)NC(=O)[C@H](CCC(=O)O)NC(=O)[C@H]([C@@H](C)O)NC(=O)[C@@H]2CCCN2C(=O)[C@@H]2CCCN2C1=O
notes: also called 3BP-4250
- pIC50 Category (FACS) [1]: > 8 pIC50
- pKD Category [3]: > 8 pKD

— patent US20230212549A1 (3B PHARMACEUTICALS, published 2023)
